Laboratory results: the DeepSol protein solubility set

Experiment: soluble on expression in E. coli; label from the status in PepcDB or PDB records

Sequence: MAHHHHHHMNESVEQLFDELISDFNKNDKIGEGNESFNIREKVGNKWTNEDILNNINKNDFSKYTEYSLSSLYITDERIHIDEDNKFQDFLNVITKASDVNNIYKWIDSYYKYDSKEELDILSPKAQKKEYIFREYLEPFHLKGLCLLRKYEKGAILKSSEKSKVDVNIVSEYIVHNTYKQIMKSFGYYLSHKIYIKAHIFHNKYGNSDHIIVLILQHFKDENFKQPLFHDRALVQIKSYSNDNKYSELTQKNLLHYAEIFKPFVSLRKLNYNFVEEFKDKIMFGI
- soluble on expression in E. coli: soluble

Sequence: MNLIKEDMRVKVHMEGNVNGHAFVIEGEGKGKPYEGTQTANLTVKEGAPLPFSYDILTTAVHYGNRVFTKYPEDIPDYFKQSFPEGYSWERTMTFEDKGICTIRSDISLEGDCFFQNVRFKGTNFPPNGPVMQKKTLKWEPSTEKLHVRDGLLVGNINMALLLEGGGHYLCDFKTTYKAKKVVQLPDAHFVDHRIEILGNDSDYNKVKLYEHAVARYSPLPSQVWHHHHHH
- soluble on expression in E. coli: soluble

Sequence: GMDNWQDITDDRLVRPIHPGEVIADILDDLDINTANFAEILGVSNQTIQEVINGQRSITVDIAIRLGKALGNGPRLWLNLQQKVDLWYALQSHKEEYEQVMTLV
- soluble on expression in E. coli: soluble

Sequence: MGSDKIHHHHHHMPASDVIIAGSGPAGAMLARDLTRAGASVRILERGGETPASAPNLWKLWRRKEALHVAPGVALLRGTRVGGGSTVFYHTAISPPLEMFSHHGVEMAQDLAAVLAELPHQPLQAPLLGPTAQRIIDAARSLGLPWQTLPKMIDQELCGHGDCPPAAFWSAASLLAQAMQLGAELETGIQVNRVLFQNGRAVGVEALQKGQLRRFMGGTVILSAGGVASPVILQRSGIREAGRGFFCDPLRVGVAIGRGNGLQEAEMPMTAGFVDREAGYMLTDMTVPPNFYRAFAWAAGRVDMLAHYRHSMMIMVKIRDEISGEVNANGRVWRHFSAAEKNRMRNGMGLAADILRAAGGRRIFFSPWLAAHPGGSVRLGELLDERLSCCTPNLHVCDASVIPEPWGLPPTLTVLSLAKYLGRILLG
- soluble on expression in E. coli: not soluble

Sequence: MLKGFTPWPDELAETYRKNGCWAGETFGDLLRDRAAKYGDRIAITCGNTHWSYRELDTRADRLAAGFQKLGIQQKDRVVVQLPNIKEFFEVIFALFRLGALPVFALPSHRSSEITYFCEFAEAAAYIIPDAYSGFDYRSLARQVQSKLPTLKNIIVAGEAEEFLPLEDLHTEPVKLPEVKSSDVAFLQLSGGSTGLSKLIPRTHDDYIYSLKRSVEVCWLDHSTVYLAALPMAHNYPLSSPGVLGVLYAGGRVVLSPSPSPDDAFPLIEREKVTITALVPPLAMVWMDAASSRRDDLSSLQVLQVGGAKFSAEAARRVKAVFGCTLQQVFGMAEGLVNYTRLDDPEEIIVNTQGKPMSPYDESRVWDDHDRDVKPGETGHLLTRGPYTIRGYYKAEEHNAASFTEDGFYRTGDIVRLTRDGYIVVEGRAKDQINRGGEKVAAEEVENHLLAHPAVHDAAMVSMPDQFLGERSCVFIIPRDEAPKAAELKAFLRERGLAAYKIPDRVEFVESFPQTGVGKVSKKALREAISEKLLAGFKK
- soluble on expression in E. coli: soluble

Sequence: MGSDKIHHHHHHMKDNFFGREYDIAPAGGETGQAFVATHEDEKFFLKRNSSPFLAALSVENIVPKLVWTRRVENGDVITAQKWVNCHILTREEMVGPRVAKLLAKIHHSENLRHMLEKIENCYFSAHQLLARLKAEMKAKNEANNVMQTAIEYLERNITAVEKADYVVCHGDVNHNNWIISEENELFLVDWDGAMLADAANDLGMILYQYIPREGWDEWLSNYGTTLTSELHRKLKWYTLCQTVMQLTTNQSEEAYERAKQIFQNAIEDDEV
- soluble on expression in E. coli: not soluble

Sequence: MPAALLISGPCKICDLPAHGNHFGVLSCRACAAFFRRASRSPRFQDKACEYGDCRIFDAGAYRCKICRLKKCYKVGMDASKFQKDRDLISSSNAYLKRTKVYAPQSLANFLGRPEFIISFEPEKASPFKTVIDVTDLVHKAAEIFQEVKVIFWHKPTLHGPIDVFFASNFAVL
- soluble on expression in E. coli: soluble

Sequence: MEIIKIDSHKDIEQQEDSVLVLGYFDGLHRGHKELFNQAREIAQKMQLKIVVLTFPESPQLAFTRFEPDLLNHINYPEKRYCKFAEYGVDCLYLTDFTSSFAKISSDDFIKNYIKALKAKAVVMGFDYKFSHSKANSDYLKHHFAGQVITVPEVQYEGKKISSTRVRQLIKQGDMTQVNRLLGYEFSTRGIVVHGDARGRTIGFPTANLAPLDRTYLPADGVYVADVIVGRKRYRSMTSIGKNITFGGTELRLEANIFDFDDDIYGETIEIFWLNKIREMVKFNSVNDLVEQLKSDKEIAINWGKS
- soluble on expression in E. coli: not soluble

Sequence: MFLDEHINRNFDKLNDNDLHIAHFINTHIDECKNMKIQDLAQFTHASNATIHRFTRKLGFDGYSDFKSYLKFESNKTHQLPSNSIDSFKQEIDSTFSYLERVDYQLLTEKMHTA
- soluble on expression in E. coli: not soluble

Sequence: MPWWEQNIGMGGGALSAKQQTSADSRTESLQSLSDERRDFIQKSLDAWCANLGYKDSTVNMLTLSRTLCISKDELSVFFDQYLKTTFRIWLGDIRFNAAKKMMLEFPDYSNDIISAECGFSARTYLYRIFKSKEGCTPTEWREEQVANAAPDDKKQD
- soluble on expression in E. coli: not soluble

Sequence: SLPERGKTETADGEVFLQWLRQSVTDGMLSVNESDSVLHILARFVFVASPDVFYKYTSSAGDAVQDKKQLQKSFEALSVHHSRNGKGLYHYHKYDAPDKSGGFIKVSGYMIETNLIFRKGSCPSDSIWLSPRS
- soluble on expression in E. coli: soluble

Sequence: MTSRMQPKSGVYSVSKADFTKIFEDVPKVPITSAVDLRNKFDAVRIILSNSSEDWNKRQTQLKTVRSLVIHGEKVVDRPTMIAHLVQLLGCFELAVKDLRSQVLREAAITCSFIVSKYGIETHSIGEDILVPAMSQVAVSTKIMATSASTLTEFIVEYVQTRQVFTILSSFSTSKDKSQRRQLAALLEIVISKWSDRIKKQIMRQICELIKSAINDADSETRAAGRRAFAKLDEMHSEEADALYLELDHSKQKMLRGGDAASSWASVNSEKGSIPIRSKLSAGSKAHMNISAISEKKEGIKKLLPIVADTSLNPIEIKNIGNCLNRLLSDASNTMVLEIYSIFVRTHSSRLSEWLRLALAKLFARKAAETLPNTKKQIGHTLNVILECFNAHHQLVTVCELMCDPIHLMVPKARVVLLEYLTSLLDEYTEPGASINAKELKTAIRKMLTWASDPRLSILLTPHVEKAICSMFCVNVADFSALISDLDSEQKNWIHQTLQRNGLENGISSNNIATNSGATASRETSNTSFQKESTSFGLPEFGARKGGTGVNLGSLNISNNLALSRLEEQSTSRLMEKVNLNSTVTLPPDTLEKIQNVQDLLQKMRSSENADEQESAISSIYMMICDGGFGVWEQCYAKLLLNLFEILSKSRSENNKKMCLRILGKMCTAQAAKLFDSTEMAVCKVLDAAVNTNDATTALAVEDCLRTLATHLPLSNIINIAKVILNQEPIDDERASLVLKMVTRLFEELPAEELNNIVDDITPTIIKAYQSTSSTVRKTVVYCLVAMVNRVGEQRMTPHFTKLPKAMTNLIQVYVNRAISTSLPRL
- soluble on expression in E. coli: not soluble

Sequence: MSLIRANAGDWKKYTFELTPDKTDENARLAIYLEEKGRIQVDMVTLMNGADRQFCGLPLRNDIGQAMVDQGLRFLRYGGTMVNAPEYRFKKMIGDRAERPPYKGHWYTYSTNGFGIEDFLHFCEKAGFMPAYAVNVEESAQDMADMIEYLNGSVDTKWGKKRAENGHPEPYGLKYLEIGNEEVIWGDIEADYQHYIDRFNDIYEAVHAKDPEVQFIHSAWWRPESPNMEKVFKALDGKAAYWDYHPWTDDLGSHVNIDRELTDMKAKFLKWNPKTSMRCAIFEENGNLHNVQRAIVHATVQNVVRRHGDFILTTCAANALQPYLQNDNGWDQGQIFFTSGQVWGMPTFYAQQMSSAHHHPLRLWSETVGELDMTATTNEARDEVILHVVNTSSEVRETQVSLSGFIPKGNMEIYTLSGELNDENLPDTPTWILPKATWKQAPGSDFTYSFPGYSYTIVVLKEGHHHHHH
- soluble on expression in E. coli: not soluble

Sequence: MEMSLEEFKTMFKTVMKKEFEDELHRITEPGKSKMAIERYIQGINLLDKKCILDNDENHNVLFKFAPIDQDFAHSSTNLSTPSPLEEESARENNHEAQELDITERIARMNLIGGSEFQMQYSSFLTAVSTKPSTDASLKKEARRLAEIWWAKNLRFFPQTMYVLQKLDQKNPDGFNYTDFEEEVQKVIPRSWIQNHHSFTLLSLLNEESLYVKFNLIMPSDSENMNRVKVNQVIKFLGFHEIGDCEFSMIYQYVSSKSASESTYSIHKFMCEDFPGWETQYNNEKKSMDRIFEIIIQEQKLFWTEYDYHTYKRHAYKIAVPMVFSLNIVDKAVGVRSDAR
- soluble on expression in E. coli: not soluble

Sequence: MFQKILIANRGEIAVRIMKTCQKLGIRTVAIYSEADENALHVKMANEAYLVGGPRVQESYLNLEKIIEIAKKTNAEAIHPGYGLLSENPSFPVRCKEEGIVFIGPSEEIITKMGSKIESRIAMQAADVPVVPGITTNIETAEEAIEIAKQIGYPLMLKASAGGGGIGMQLMETEQTLTKAFESNKTRAQNFFGNGEMYLERYIADAHHIEIQLLADTHGNTVYLWERECSVQRRNQKVIEEAPSPFLDEGTRKAMGEIAVQAAKALGYTNAGTVEFLVDEQKNFYFLEMNTRLQVEHPVTEEITGLDLVEQQLLIAYGEKLSFTQDDIKRSGHAIEARIYAEDPKTFFPSPGKITDLTLPTNVRIDHFLENQVTITPFYDPMIAKVIAHGETREEAISKLHDALEELKVEGIKTNTPMLLQVLEDDVFKSGIYTTGFVTKQLVKK
- soluble on expression in E. coli: not soluble

Sequence: MTFLIKRETQVDQILRDIRAVVNQMVPKEAKITEIEFEGPELVIYVKNPEAIMKDGELIKDLAKVLKKRISVRPDPEVLLPPEEAEKLIFEIVPKEAEITNIAFDPSVGEVLIEAKKPGLVIGKNGETLRLITQKVKWAPKVVRTPPLQSQTIYSIRQILQTESKDRRKFLRQVGRNIYRKPEYKSRWIRITGLGGFREVGRSALLVQTDESFVLVDFGVNVAMLNDPYKAFPHFDAPEFQYVLREGLLDAIIITHAHLDHCGMLPYLFRYNLFDGPIYTTPPTRDLMVLLQKDFIEIQQSNGQDPLYRPRDIKEVIKHTITLDYGEVRDISPDIRLTLHNAGHILGSAIVHLHIGNGLHNIAITGDFKFIPTRLLEPANAKFPRLETLVMESTYGGANDIQMPREEAEKRLIEVIHNTIKRGGKVLIPAMAVGRAQEVMMVLEEYARIGGIEVPIYLDGMIWEATAIHTAYPEYLSRRLREQIFKEGYNPFLSEIFHPVANSRERQDIIDSNEPAIIIASSGMLVGGPSVEYFKQLAPDPKNSIIFVSYQAEGTLGRQVQSGIREIPMVGEEGRTEVIKVNMEVHTIDGFSGHADRRELMNYVAKVRPRPERIITVHGEPQKCLDLATSIHRKFGISTRAPNNLDTIRLR
- soluble on expression in E. coli: soluble

Sequence: MDYYYYPFVSDPYAVYTPNVWQSQGADELYLYSMPAIERQPQPVLSNAPAQTSIVLFKELTGYPNYGNPSGNADILYTGNRGTWTFDIQPILLIPGNLTAQLVIRGVLDDHTNVPVANYSARITINGTVVHTGRLPLVHGSPAGQRFNNWRLLTFNVPNLRRNNTVVIQNTSNTGPNDWIAFDWMELRLQPR
- soluble on expression in E. coli: not soluble

Sequence: MKYYRRALYDKFVHFYLVISDDGSSEAQLRGKMGGLVRKARKKISPDWPKEEQIHQLLQLFYGDWGFHCDPEDYFYARNLYLPYVFEHRQGMPVTLGAMVFYLAEALDLPIYPVNFPTQLILRAEVRDEVAFIDPWDGTYISQEKLQQLYEGAFGFGAKIQPEELDRADLSLLYSRFEQLAKNALIREEHNDMAYHYIKNLMITDAENPYHIRDRGLVLAQMGAYPSALKDLEFFVEHCPKDPTAAFIRTQLLELKGEINKDTFPLHLEHHHHHH
- soluble on expression in E. coli: not soluble
